The record followed here is paper PMC8983440.

The target of this assay is IFN-receptor expressed by 38C13 cells (mouse (endogenous in 38C13)) (UniProt P33896). As to the kind of experiment: radioligand binding.
Sequence of UniProt P33896 (P33896 27-590, chain 1 of 2): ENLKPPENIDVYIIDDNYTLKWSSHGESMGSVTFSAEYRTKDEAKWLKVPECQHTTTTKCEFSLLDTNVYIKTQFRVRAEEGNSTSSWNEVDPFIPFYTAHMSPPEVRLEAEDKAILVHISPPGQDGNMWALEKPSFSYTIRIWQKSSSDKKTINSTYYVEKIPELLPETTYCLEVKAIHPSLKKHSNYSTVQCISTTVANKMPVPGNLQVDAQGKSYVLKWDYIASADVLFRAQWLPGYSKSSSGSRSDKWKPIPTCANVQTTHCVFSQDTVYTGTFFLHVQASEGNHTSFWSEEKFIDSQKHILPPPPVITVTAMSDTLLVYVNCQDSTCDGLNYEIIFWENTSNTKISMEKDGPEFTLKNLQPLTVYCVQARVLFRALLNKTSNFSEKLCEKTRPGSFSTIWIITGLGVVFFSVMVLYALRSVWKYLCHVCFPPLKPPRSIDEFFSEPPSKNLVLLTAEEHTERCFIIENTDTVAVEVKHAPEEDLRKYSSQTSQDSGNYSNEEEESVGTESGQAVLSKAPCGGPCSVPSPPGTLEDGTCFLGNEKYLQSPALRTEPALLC
Sequence of UniProt P33896 (O35664 22-513, chain 2 of 2, further chain): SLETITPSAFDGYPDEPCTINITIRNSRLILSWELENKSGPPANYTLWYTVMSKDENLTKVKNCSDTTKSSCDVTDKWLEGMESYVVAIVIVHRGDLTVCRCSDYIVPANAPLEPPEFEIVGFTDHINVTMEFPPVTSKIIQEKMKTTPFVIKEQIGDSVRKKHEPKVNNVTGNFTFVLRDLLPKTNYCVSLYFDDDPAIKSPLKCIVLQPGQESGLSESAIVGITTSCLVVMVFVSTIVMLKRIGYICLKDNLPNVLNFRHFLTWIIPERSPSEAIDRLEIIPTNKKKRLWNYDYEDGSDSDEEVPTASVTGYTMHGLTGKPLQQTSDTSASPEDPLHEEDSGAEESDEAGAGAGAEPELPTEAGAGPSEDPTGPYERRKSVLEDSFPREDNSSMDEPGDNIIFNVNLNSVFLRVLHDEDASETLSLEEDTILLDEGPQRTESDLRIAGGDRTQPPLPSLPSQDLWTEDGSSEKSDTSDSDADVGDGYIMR

With “anti-CD20 rituximab-murine IFNα1 fusion protein (from UniProt P01572 24-189)”, the percent cell-bound activity came to 44.6%.
